In data set [1] the target is T1, recombinant wild-type pro-ghrelin-His8 (mouse, UniProt Q9EQX0 24-117).
T1 sequence: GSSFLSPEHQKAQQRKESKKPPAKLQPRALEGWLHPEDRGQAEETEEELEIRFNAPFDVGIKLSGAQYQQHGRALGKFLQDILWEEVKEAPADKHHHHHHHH
Put plainly: cell-based or functional assay.

Data set [2] has as its target T2, recombinant wild-type pro-ghrelin-His8, Q9EQX0.
T2 chain: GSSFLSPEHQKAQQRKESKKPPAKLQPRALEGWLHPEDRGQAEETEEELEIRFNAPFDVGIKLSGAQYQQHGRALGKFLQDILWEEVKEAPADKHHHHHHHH

Consider “GOAT expressed in Sf9 insect cells from pFastBac HT-A (His10-tag) (from UniProt P0C7A3 1-435) (enzyme)”, for which the acylating activity of GOAT in Sf9 membranes against that in INS-1 cell membranes in data set [1] is 5 fold.

B1: mouse ghrelin O-acyltransferase (GOAT) (enzyme)
chain: MDWLQLFFLHPLSFYQGAAFPFALLFNYLCILDTFSTRARYLFLLAGGGVLAFAAMGPYSLLIFIPALCAVALVSFLSPQEVHRLTFFFQMGWQTLCHLGLHYTEYYLGEPPPVRFYITLSSLMLLTQRVTSLSLDICEGKVEAPRRGIRSKSSFSEHLWDALPHFSYLLFFPALLGGSLCSFRRFQACVQRSSSLYPSISFRALTWRGLQILGLECLKVALRSAVSAGAGLDDCQRLECIYLMWSTAWLFKLTYYSHWILDDSLLHAAGFGAEAGQGPGEEGYVPDVDIWTLETTHRISLFARQWNRSTALWLRRLVFRKSRRWPLLQTFAFSAWWHGLHPGQVFGFLCWSVMVKADYLIHTFANVCIRSWPLRLLYRALTWAHTQLIIAYIMLAVEGRSLSSLCQLCCSYNSLFPVMYGLLLFLLAERKDKRN
As for B1, in data set [2], the “amount of [3H]octanoyl pro-ghrelin formed, in vitro assay with Sf9 membranes, against S3A mutant pro-ghrelin as substrate” value is recorded as “more than 5-fold higher than when the S3A mutant pro-ghrelin was used as the substrate”. The “3H-radioactivity covalently linked to pro-ghrelin, in vitro assay with [3H]octanoyl CoA and INS-1 cell membranes, against mock-transfected membranes” value in data set [1] was determined as 5 fold.
